Among the data in PMC9554411 are stoichiometry N values, retold here.

This test deals with MERS-CoV spike glycoprotein ectodomain (EMC strain, spike residues 1-1290), trimer (MERS-CoV (EMC strain)) (UniProt K0BRG7). In words: cryo-EM structure.

For “MERS-CoV spike glycoprotein ectodomain (EMC strain, spike residues 1-1290), trimer (from UniProt K0BRG7 18-1290) (domain or fragment)”, the stoichiometry N (as a rule, a count of units in the complex or per binding partner) is 3.
